From publication PMC11904528, “Discovery and preclinical development of a SdAb-based CAR-T technology for targeting CD33 in AML” (Molecular Therapy Oncology, 2025) come the findings set out here.

Test [1] has as its target T1, CD33 recombinant ectodomain (His-tagged) (Homo sapiens, UniProt P20138).
T1 construct: CD33 (Siglec-3), human, recombinant ectodomain; The methods name the catalogue number for the immunogen; In SPR it was captured by its His tag on NTA and then cross-linked with EDC/NHS; also called Siglec-3; extracellular domain (ECD) of human CD33; source: bought: SinoBiological #12238-H08H; not shown: His tag, C-terminal, kept
Put plainly: ELISA; CD33-coated plates; SdAbs titrated and detected with anti-HA HRP; relative affinities (EC50). In general terms: In an ELISA, binding on a coated surface is turned into a signal by an enzyme label.

For test [2], the target named is T1, CD33 recombinant ectodomain (His-tagged). Put plainly: SPR; Biacore X100, NTA chip; His-tagged CD33 ectodomain captured on nickel, cross-linked with EDC/NHS, nickel stripped with EDTA (388 RU); SdAbs as analytes at 1,000-12.3 nM; single-cycle kinetics; HBS-EP+; 10 uL/min, contact 300 s, dissociation 600 s; 1:1 binding model.
In test [3] the target is CD33 recombinant ectodomain (His-tagged) (human) (UniProt P20138). Put plainly: ELISA; CD33-coated plates; SdAbs titrated and detected with anti-HA HRP; relative affinities (EC50).
Chain of CD33 recombinant ectodomain (His-tagged) (human) (P20138 18-259): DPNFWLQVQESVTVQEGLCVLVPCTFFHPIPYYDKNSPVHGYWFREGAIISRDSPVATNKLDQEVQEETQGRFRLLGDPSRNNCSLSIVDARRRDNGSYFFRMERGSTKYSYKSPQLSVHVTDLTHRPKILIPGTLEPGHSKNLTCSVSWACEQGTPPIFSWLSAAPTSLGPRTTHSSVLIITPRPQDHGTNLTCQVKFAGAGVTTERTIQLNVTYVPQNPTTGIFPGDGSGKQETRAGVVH
Test [4] deals with T2, Biotinylated CD33 (bio-CD33) (Homo sapiens, UniProt P20138, biotin).
T2 construct: CD33 (Siglec-3), biotinylated
T2 sequence (P20138 whole entry, looked up, tested part not stated): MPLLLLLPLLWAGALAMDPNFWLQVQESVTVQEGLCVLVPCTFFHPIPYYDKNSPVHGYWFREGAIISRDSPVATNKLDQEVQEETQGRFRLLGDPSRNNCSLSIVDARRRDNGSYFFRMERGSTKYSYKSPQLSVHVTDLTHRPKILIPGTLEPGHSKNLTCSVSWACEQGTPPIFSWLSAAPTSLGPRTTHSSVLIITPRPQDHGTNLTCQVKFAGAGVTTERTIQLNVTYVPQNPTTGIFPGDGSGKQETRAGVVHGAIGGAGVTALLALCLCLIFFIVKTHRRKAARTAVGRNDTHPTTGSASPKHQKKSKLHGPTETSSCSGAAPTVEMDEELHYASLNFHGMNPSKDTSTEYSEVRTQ
Put plainly: BLI; Octet N1, streptavidin SAX2 sensors; bio-CD33 immobilised at 100 nM; in-tandem epitope binning: first antibody 400 nM, then a mixture of 400 nM first and 200 nM second antibody; PBS. Conditions: both partners purified. A general note: BLI is a label-free optical method that tracks binding on a fibre tip over time.

In test [5] the target is CD33 recombinant ectodomain (His-tagged) (human) (UniProt P20138). The test is described as follows: SPR; Biacore X100, NTA chip; His-tagged CD33 ectodomain captured on nickel, cross-linked with EDC/NHS, nickel stripped with EDTA (388 RU); SdAbs as analytes at 1,000-12.3 nM; single-cycle kinetics; HBS-EP+; 10 uL/min, contact 300 s, dissociation 600 s; 1:1 binding model.
Test [6] concerns the target T1, CD33 recombinant ectodomain (His-tagged).

Read-outs that look alike come from different tables or passages of the source.

T1 sequence (P20138 18-259): as the sequence (P20138 18-259) above

B1: Nb17 (VHH)
VHH: QVQLQESGGGLVQTGGSLRLSCAVSGSTFSDYVIGWFRQAPGKERDFVAAITWSGGSTYYADSVKGRFIISRDNAKNTVYLQMNSLKPEGTAVYYCAALQLKGGSYYYPAPEEYSYWGQGTQVTVSS
notes: llama VHH; From a phage display library of a llama immunised with CD33; also called SdAb Nb17; source: E. coli expression strains (pETMod, OmpA periplasmic signal), purified (IMAC, IEC)
For orientation: EC50 means the concentration that produces a half-maximal response. A word on the Kd: it is the free concentration of one partner at which half of the binding sites on the other are occupied at equilibrium, for simple one-to-one binding. As usually defined, the koff is the first-order rate constant of dissociation. For orientation: kon means the rate constant with which the complex forms. Consider B1, for which the EC50 in test [1] (both partners purified) came to 4.05 nM. In test [2] (both partners purified), the Kd came out at 4.99 nM, the koff is 8.24e-05 s⁻¹ and the on-rate constant (kon) amounted to 16500 M⁻¹ s⁻¹.

B2: Nb3 (VHH)
VHH: EVQLVESGGGLVQAGGSLSLSCAASGRTFSSYVMGWFRQAPGKEREFVAALTWSGGSTYYGDSAKGRFTISRDNAKNTVYLQMNSLKPEDTADYYCAAAALEGGAYHIATMSTYNYWGQGTQVTVSS
notes: llama VHH; From a phage display library of a llama immunised with CD33; also called SdAb Nb3; source: E. coli expression strains (pETMod, OmpA periplasmic signal), purified (IMAC, IEC)
Take B2: in test [3], the EC50 was determined as 16.7 nM. Also, in test [4], the binding result was “binds”. In addition, in test [5], the Kd is 115 nM, the koff amounted to 0.0017 s⁻¹ and the association rate constant (kon) came out at 14700 M⁻¹ s⁻¹.

B3: Nb16 (VHH)
VHH: EVQLVESGGGLVQTGGSLRLSCAASGRTFSPLAMGWFRQAPGREREFVAGITWSGGSLYYGDFVKGRFTISRDAAKNTLYLQMNSLKPEDTAVYYCAARDYSGDSNFQVTRPSEWDHWGQGTQVTVSS
B3: the Kd in test [6] was found to be 4.18 nM. For the same molecule, in test [1], the EC50 is 1.91 nM. Moreover, in test [2], the Kd stood at 4.18 nM, the koff worked out at 4.64e-05 s⁻¹ and the kon came to 11100 M⁻¹ s⁻¹.

B4: Nb8 (VHH)
VHH: EVQLVESGGGLVQDGGSLRLSCAASGRTFSSYVMGWFRQAPGKEREFVAAITWSGGSTYYADSVKGRFTISRDNAKNTVYLQMNSLKPEDTAVYYCAAFELGGGSYYYPDPNEYDYWGQGTQVTVSS
notes: llama VHH; From a phage display library of a llama immunised with CD33; also called SdAb Nb8; source: E. coli expression strains (pETMod, OmpA periplasmic signal), purified (IMAC, IEC)
Take B4: the EC50 in test [1] (both partners purified) turned out to be 3.99 nM. Also, in test [2] (both partners purified), the Kd was 14.4 nM, the koff came to 0.000356 s⁻¹ and the kon is 24800 M⁻¹ s⁻¹.

B5: Nb1 (VHH)
VHH: QVQLQESGGGLVQVGGSLRLSCAASGRAFSTDIMAWFRQAPGKEREFVAAIKWNADNTYDTNSVKGRFTISRDNAKNTNYLEVNSLKPEDTAVYYCASGFSSRPYSDSDSRKYIYWGQGTQVTVSS
notes: llama VHH; From a phage display library of a llama immunised with CD33; also called SdAb Nb1; source: E. coli expression strains (pETMod, OmpA periplasmic signal), purified (IMAC, IEC)
For B5, the concentration giving a half-maximal response (EC50) in test [1] (both partners purified) turned out to be 6.4 nM. In test [2] (both partners purified), the Kd was 29.9 nM, the koff was found to be 0.0011 s⁻¹ and the kon was determined as 36800 M⁻¹ s⁻¹.
